Share of motor neurons vulnerable to NGF in culture data for one substance are collected here from patent publication US20060275290A1.

The test concerns the target p75 neurotrophin receptor (p75^NTR) on rat embryonic (E15) spinal cord motor neurons (rat) (UniProt P07174). Description: cell-based or functional assay.

p75 neurotrophin receptor (p75^NTR) on rat embryonic (E15) spinal cord motor neurons (rat), sequence (P07174 30-425): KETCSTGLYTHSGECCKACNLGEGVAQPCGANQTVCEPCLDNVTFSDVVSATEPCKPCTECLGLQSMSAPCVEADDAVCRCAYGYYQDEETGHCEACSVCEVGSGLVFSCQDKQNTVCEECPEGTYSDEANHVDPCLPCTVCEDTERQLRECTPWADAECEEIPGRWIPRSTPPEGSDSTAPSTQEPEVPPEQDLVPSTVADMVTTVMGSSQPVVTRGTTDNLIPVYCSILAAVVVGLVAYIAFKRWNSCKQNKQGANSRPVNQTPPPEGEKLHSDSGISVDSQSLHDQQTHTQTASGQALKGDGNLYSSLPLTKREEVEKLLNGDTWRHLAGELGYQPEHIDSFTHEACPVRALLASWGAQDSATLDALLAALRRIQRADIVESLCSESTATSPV

Substance “mouse NGF (2.5S), purified, from Harlan (from UniProt P01139 122-241) (ligand)” gave a share of motor neurons vulnerable to NGF in culture of 40%.
